Results published in US20260152732.

System: T1, DNASE1-LIKE 3, Isoform 1 (wild-type human D1L3), purified
T1 sequence: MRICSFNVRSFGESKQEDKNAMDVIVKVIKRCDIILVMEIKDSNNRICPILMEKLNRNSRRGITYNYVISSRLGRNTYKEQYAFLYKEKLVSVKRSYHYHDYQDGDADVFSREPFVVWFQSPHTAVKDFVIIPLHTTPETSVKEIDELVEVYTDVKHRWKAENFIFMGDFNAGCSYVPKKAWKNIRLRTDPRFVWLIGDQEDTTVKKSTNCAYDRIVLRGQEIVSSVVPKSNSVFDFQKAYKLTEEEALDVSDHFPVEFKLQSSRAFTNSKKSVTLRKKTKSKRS

Substance: plasmin (purified)
- proteolytic cleavage sites (digestion, fragments sequenced by LC and MS): plasmin cleaved D1L3 at the following arginine and lysine residues: R22, R29, K45, K47, K74, R81, R92, K107, K176, R212, R226, R227, K250, K259, and K262

Substance: trypsin
- proteolytic cleavage sites (digestion, fragments sequenced by LC and MS): trypsin cleaved D1L3 at the following arginine and lysine residues: R22, R29, R51, R66, R80, R81, R95, K99, R115, K147, K163, K180, R208, R212, R235, R239, K250, and K262
